Source: patent US7772001B2, “Directed differentiation of embryonic stem cells into an endoderm cell” (Yissum Research Development Company Of the Hebrew …, priority 2000, dated 2010)
“Also recorded” adds a separate entry of the source.

Tests used:
[1] = tested on: human differentiated embryonic (DE) cells; assay: Morphology of DE cells cultured with growth factors; assay type: cell-based; conditions: several days on plastic, continuous exposure to growth factor (FIG. 1B)
Description: (§1) Cell Culture: Human embryonic stem cells were grown on a feeder layer of mouse embryonic fibroblasts (MEF) and then transferred to gelatin coated plates and cultured further to reduce the number of murine cells in the culture. Differentiation into embryoid bodies (EBs) was initiated by transfer to Petri dishes, where the embryoid bodies remained in suspension. After 5 days, the EBs become dissociated and cells are cultured as a monolayer forming differentiated embryonic (DE) cells. This protocol allows for initial differentiation of the human embryonic stem cells as aggregates and further differentiation as a monolayer wherein cells can be exposed to exogenous growth factors. The DE cells were cultured for 10 days in the presence of 8 different growth factors: NGF, bFGF, Activin-A, TGFβ1, HGF, EGF, BMP4 and retinoic acid (RA) (FIG. 1A).
To induce formation of EBs, ES cells were transferred using trypsin/EDTA (0.1%/l mM) to plastic Petri dishes to allow their aggregation and prevent adherence to the plate. Human EBs were grown in the same culture medium, except that it lacked leukemia inhibitory factor (LIF) and bFGF. The EBs were cultured for 5 days and then dissociated and plated on tissue culture plates coated with 50 μg/ml Fibronectin (Boehringer Mannheim). […]

[2] = tested on: human differentiated embryonic (DE) cells; assay: RT-PCR of cell specific genes in DE cells treated with growth factors; assay type: cell-based; conditions: for overall induction or repression of cell specific expression (FIG. 3B): at least three experiments
Description: as §1
To induce formation of EBs, ES cells were transferred using trypsin/EDTA (0.1%/l mM) to plastic Petri dishes to allow their aggregation and prevent adherence to the plate. Human EBs were grown in the same culture medium, except that it lacked leukemia inhibitory factor (LIF) and bFGF. The EBs were cultured for 5 days and then dissociated and plated on tissue culture plates coated with 50 μg/ml Fibronectin (Boehringer Mannheim). The cells were grown in the presence of the following human recombinant growth factors used singly or in groups: Basic Fibroblast Growth Factor (bFGF) (Swoboda et al, 1999)—10 ng/ml (Gibco BRL); Transforming Growth Factor Beta 1 (TGFβ1) (Swoboda et al, 1999)—2 ng/ml (R&D Systems); Activin-A (Slager et al, 1993)—20 ng/ml (R&D Systems); Bone Morphogenic Protein 4 (BMP-4) (Slager et al, 1993; Bain et al, 1996)—10 ng/ml (R&D Systems); Hepatocyte Growth Factor (HGF)/Scatter Factor (Doetsch et al, 1999)—20 ng/ml (R&D Systems); Epidermal Growth Factor (EGF) (Doetsch et al, 1999)—100 ng/ml (R&D Systems); βNerve Growth Factor (NGF) (Johansson et al, 1999)—100 ng/ml (R&D Systems); Retinoic acid (RA) (Deacon et al, 1998; Peschanski et al, 1995)—1 μM (Sigma). Under these conditions the differentiated embryonic (DE) cells were grown for another 10 days. All of the examined growth factors are absent from the KnockOut™ serum replacement in which the embryonic cells were cultured.
RT-PCR Analysis: Total RNA was extracted using Atlas™ Pure Total RNA Kit (Clontech). cDNA was synthesized from 1 μg total RNA, using Atlas™ RT-for-PCR Kit (Clontech). cDNA samples were subjected to PCR amplification with DNA primers selective for the human genes. For each gene, the DNA primers were derived from different exons to ensure that the PCR product represents the specific mRNA species and not genomic DNA. PCR was performed using the Clontech Advantaq+™ RT-PCR kit and using a two-step cycle at 68° C.
Primers were synthesized for the following genes: neurofilament heavy chain (NF-H), phosphoprotein enriched in astrocytes (PEA-15), Keratin, Dopamine β Hydroxylase (DβH), Follicular Stimulating Hormone (FSH), Enolase, Myosin light polypeptide2 (myosin), Cartilage Matrix Protein (CMP), Renin, Kallikrein, Wilms Tumor 1 (WTI), β-Globin (β-Glob), δ-Globin (δ-Glob), Cardiac Actin (cACT), Albumin, α1 anti-trypsin (α1 AT), Lipase, Amylase, PDX-1, Insulin, Glucagon, Surfactant, Parathyroid Hormone (PTH), α-feto protein (αFP), Retinoic Acid Receptor type alpha (RAR), Hepatocyte Growth Factor Receptor (c-Met), Nerve Growth Factor Receptor (NGFR), Fibroblast Growth Factor Receptor type I (FGFRI), Transforming Growth Factor Receptor type II (TGFRII), Epidermal Growth Factor Receptor type (EGFR), Activin Receptor type IIB (ACTRIIB), Bone Morphogenic Protein 4 Receptor type II (BMP4RII), Octamer Binding Protein 4 (Oct 4), Glyceraldehyde 3-phosphate dehydrogenase (G3PD), β-Actin. Also incorporated by reference, see http://www.ls.huji.ac.il/˜nissimb/factors_es/primers.html-ente.
The differentiation induced by growth factors was further examined by determining the expression of a panel of 24 cell specific genes using RT-PCR. […]

[3] = vs control without growth factor (FIG. 4)

Molecule | cell morphology found in treated culture [1] | overall induction or repression of cell specific expression (FIG. 3B) [2] | blood formation [2, 3] | differentiation into chondrocytes [2, 3] | differentiation into ectodermal cells [2, 3] | differentiation into mesodermal cells [2, 3] | differentiation into skin cells [2, 3] | differentiation into Mullerian duct cells [2, 3] | differentiation into endodermal cells [2, 3] | differentiation into kidney cells [2, 3]
BMP-4: human recombinant Bone Morphogenic Protein 4, 10 ng/ml (protein, UniProt P12644 293-408, looked up) Bone morphogenetic protein 4: SPKHHSQRARKKNKNCRRHSLYVDFSDVGWNDWIVAPPGYQAFYCHGDCPFPLADHLNSTNHAIVQTLVNSVNSSIPKACCVPTELSAISMLYLDEYDKVVLKNYQEMVVEGCGCR | large round cells | mostly repress or fail to direct differentiation of as many cell types | reduced | reduced | allow or induce | allow or induce; also recorded: inhibits differentiation of all other mesodermal cells examined | apparently permitting skin cells to form |  |  | 
Activin-A: human recombinant Activin-A, 20 ng/ml (protein, UniProt P08476 311-426, looked up) Inhibin beta A chain: GLECDGKVNICCKKQFFVSFKDIGWNDWIIAPSGYHANYCEGECPSHIAGTSGSSLSFHSTVINHYRMRGHSPFANLKSCCVPTKLRPMSMLYYDDGQNIIKKDIQNMIVEECGCS | muscle like syncytiums | mostly repress or fail to direct differentiation of as many cell types | inhibit | inhibit | inhibit | allow differentiation into selected mesodermal cells |  | inhibit | inhibit | inhibit
